Reference: patent publication US20250297032A1 (CONCEPT TO MEDICINE BIOTECH, published 2025)
Numbering of substitutions follows the chain as printed.

T1: human FAPα-His tag (Sino biological) (human, UniProt Q12884 26-760)
T1 construct: Bought protein; also called human FAPα-His protein; not shown: His tag
T1 sequence (looked up): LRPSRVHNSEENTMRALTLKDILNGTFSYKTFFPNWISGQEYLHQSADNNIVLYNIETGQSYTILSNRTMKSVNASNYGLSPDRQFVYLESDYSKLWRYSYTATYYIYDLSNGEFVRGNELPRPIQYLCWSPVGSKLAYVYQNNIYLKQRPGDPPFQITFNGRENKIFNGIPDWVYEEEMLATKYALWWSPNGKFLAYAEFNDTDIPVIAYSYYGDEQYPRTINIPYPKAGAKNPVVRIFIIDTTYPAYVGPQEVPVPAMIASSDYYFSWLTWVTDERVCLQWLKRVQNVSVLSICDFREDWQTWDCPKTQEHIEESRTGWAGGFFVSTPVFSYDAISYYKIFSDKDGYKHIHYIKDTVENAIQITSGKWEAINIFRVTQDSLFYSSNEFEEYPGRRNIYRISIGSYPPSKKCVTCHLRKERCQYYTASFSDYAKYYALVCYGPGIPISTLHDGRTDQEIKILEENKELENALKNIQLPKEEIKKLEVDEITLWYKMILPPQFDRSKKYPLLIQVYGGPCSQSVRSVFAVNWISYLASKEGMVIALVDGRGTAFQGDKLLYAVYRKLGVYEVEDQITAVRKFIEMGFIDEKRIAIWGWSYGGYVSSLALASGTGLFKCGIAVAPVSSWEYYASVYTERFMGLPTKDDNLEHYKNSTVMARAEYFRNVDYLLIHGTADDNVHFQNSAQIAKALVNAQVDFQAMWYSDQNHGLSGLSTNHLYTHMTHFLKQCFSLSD

T2: mouse FAPα-His protein (mouse, UniProt P97321 26-761, limits assumed)
T2 construct: not shown: His tag
T2 sequence (looked up): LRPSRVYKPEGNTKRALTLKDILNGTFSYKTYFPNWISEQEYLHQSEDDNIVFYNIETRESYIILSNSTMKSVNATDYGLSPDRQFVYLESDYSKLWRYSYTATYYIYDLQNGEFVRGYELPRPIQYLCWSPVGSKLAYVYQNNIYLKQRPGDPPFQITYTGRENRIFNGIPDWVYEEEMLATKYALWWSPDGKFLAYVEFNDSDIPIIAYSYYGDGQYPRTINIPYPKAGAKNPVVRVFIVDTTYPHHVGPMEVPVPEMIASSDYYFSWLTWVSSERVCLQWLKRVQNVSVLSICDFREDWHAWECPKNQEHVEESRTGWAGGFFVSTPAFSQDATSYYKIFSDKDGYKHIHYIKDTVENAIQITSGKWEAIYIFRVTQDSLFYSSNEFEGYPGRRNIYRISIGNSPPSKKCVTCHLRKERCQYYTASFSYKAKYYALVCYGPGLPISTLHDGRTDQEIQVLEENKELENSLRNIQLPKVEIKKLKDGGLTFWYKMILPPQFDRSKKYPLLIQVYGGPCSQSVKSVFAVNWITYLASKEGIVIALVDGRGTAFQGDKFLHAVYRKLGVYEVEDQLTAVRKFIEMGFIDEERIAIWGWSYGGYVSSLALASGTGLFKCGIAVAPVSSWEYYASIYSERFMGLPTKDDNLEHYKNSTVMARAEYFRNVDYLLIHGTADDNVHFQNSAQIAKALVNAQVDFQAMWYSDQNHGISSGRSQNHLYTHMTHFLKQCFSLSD

B1: G14 (antibody, V domains shown)
VH: QVQLLESGGGVVQPGRSLRLSCAASGFTFSSYAMHWVRQAPGKGLEWVAFISHDGNRNSYADSVRGRFTISRDNSKNTLYLQMNSLRAEDTAVYYCARDLGYYNGFSYWGQGTLVTVSA
VL: DIVMTQSPSSVSASVGDRVTITCRASQGISSWLAWYQQKPGKAPKLLIYAASSLQSGVPSRFSGSGSGTDFTLTISSLQPEDFATYYCQQANSFPPTFGPGTKVDIK
notes: Full human antibody from a Fab phage library; Tested as a mAb (detected with anti-human IgG, captured on Protein A); also called FAP-G14; FAP-G14-Bio (biotin-conjugated form)
B2: J40 (antibody, V domains shown)
VH: EVQLLESGGGLVQPGGSLRLSCAASGFTFSSYAMSWVRQAPGKGLEWVSAISGSGGSTYYADSVKGRFTISRDNSKNTLYLQMNSLRTDDTAVYYCARDLTTSTGWESWGQGTLVTVSA
VL: B1 VL with D1N, V3Q, P100Q, V104L, D105E
notes: Tested as a mAb; also called FAP-J40; FAP-J40-Bio (biotin-conjugated form)
B3: I37 (antibody, V domains shown)
VH: QLQLVESGGGLVQPGGSLRLSCAASGFTFSSYAMSWVRQAPGKGLEWVSAISGSGGSTYYADSVKGRFTISRDNSKNTLYLQMNSLRAEDTAVYYCARDKPWGGSFDYWGQGTLVTVSA
VL: B1 VL with V3Q, M4L, V11L, P96V
notes: Tested as a mAb; also called FAP-I37
B4: I30 (antibody, V domains shown)
VH: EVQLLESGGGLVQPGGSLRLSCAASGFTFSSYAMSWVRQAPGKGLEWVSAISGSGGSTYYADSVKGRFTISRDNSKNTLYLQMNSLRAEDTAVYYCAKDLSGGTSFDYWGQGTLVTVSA
VL: B1 VL with D1A, V3R, M4L, P100G, D105E
notes: Tested as a mAb; also called 130; FAP-I30

What follows are binders tested against T1, human FAPα-His tag (Sino biological) (assay: competitive ELISA on coated human FAPα; biotinylated mAb alone, no competing Ab (row '0')).
Method: (§1) Briefly, microtiter plates were coated with human FAPα proteins at 0.5 μg/ml in PBS, 100 μl/well at 4° C. overnight, then blocked with 150 μl/well of 1% BSA. Serial dilutions of chimeric antibodies as well as biotin-conjugated reference mAb were added to each well and incubated for 1 hour at RT. The plates were washed with PBS/Tween and then incubate with streptavidin-HRP for 15 mins at RT. After washing, the plates were developed with TMB substrate and analyzed by spectrophotometer at OD 450 nm. According to the competition ability to reference mAbs (Benchmark, or “BMK”), all tested FAPα mAbs binds to the similar epitope as shown in Table 5.
With B1 the “OD 450 nm” value was 2.15 OD 450 nm.
In the case of B2, the “OD 450 nm” value is reported as 1.2 OD 450 nm.
With B3 the “OD 450 nm” value was 1.72 OD 450 nm.
With B4 the “OD 450 nm” value was 1.49 OD 450 nm.

Each binder was assayed against T1, human FAPα-His tag (Sino biological) (assay: competitive ELISA on coated human FAPα; competitor (detected): FAP-I30-Bio).
Method: as §1
For B1, the “OD 450 nm” value was 0.241 OD 450 nm.
With B2 the “OD 450 nm” value was 0.218 OD 450 nm.
With B3 the “OD 450 nm” value was 0.239 OD 450 nm.
For B4, the “OD 450 nm” value was 0.143 OD 450 nm.

What follows are binders tested against T1, human FAPα-His tag (Sino biological) (assay: SPR (Biacore T200), mAb captured on Protein A chip, human FAPα-His as analyte).
Method: The binding of the tested antibodies to recombinant FAPα protein (human FAPα-his tag) was tested with Biacore using a capture method. The mAbs were captured using Protein A chip. A serial dilution of human FAPα-his tag protein was injected over captured antibody for 3 mins at a flow rate of 30 μl/min. The antigen was allowed to dissociate for 800s. All the experiments were carried out on a Biacore T200. Data analysis was carried out using the Biacore T200 evaluation software.
Work on B1 yielded a Kd of 0.522 nM, a koff of 6.24e-05 s⁻¹ and a kon of 120000 M⁻¹ s⁻¹.
Work on B2 yielded a Kd of 1.01 nM, a koff of 7.31e-05 s⁻¹ and a kon of 72200 M⁻¹ s⁻¹.
With B3 the Kd was 0.855 nM, the koff was 0.000154 s⁻¹ and the kon was 180000 M⁻¹ s⁻¹.
B4 showed a Kd of 0.454 nM, a koff of 6.2e-05 s⁻¹ and a kon of 137000 M⁻¹ s⁻¹.

What follows are binders tested against T1, human FAPα-His tag (Sino biological) (assay: competitive ELISA on coated human FAPα; competitor (detected): FAP-G52-Bio).
Method: as §1
With B1 the “OD 450 nm” value was 0.195 OD 450 nm.
B2 was tested, and the “OD 450 nm” value was 0.206 OD 450 nm.
With B3 the “OD 450 nm” value was 0.18 OD 450 nm.
In the case of B4, the “OD 450 nm” value is reported as 0.146 OD 450 nm.

Each binder was assayed against T2, mouse FAPα-His protein (assay: ELISA, plate coated with mouse FAPα-His, anti-human IgG-HRP, OD 450 nm).
Method: Briefly, microtiter plates were coated with mouse FAPα-His protein at 0.5 ug/ml in PBS, 100 μl/well at 4° C. overnight, then blocked with 150 μl/well of 1% BSA. Three-fold dilutions of tested antibodies starting from 1 μg/ml were added to each well and incubated for 1 hour at 37° C. The plates were washed with PBS/Tween and then incubated with Anti-Human IgG (H&L) (GOAT) Antibody Peroxidase Conjugated for 30 mins at 37° C. After washing, the plates were developed with TMB substrate and analyzed by spectrophotometer at OD 450 nm.
B1: no binding (tested: 1000 ng/ml).
B2: no binding (tested: 1000 ng/ml).
B4: no binding (tested: 1000 ng/ml).
